From publication PMC4598028, “pH-Dependent Assembly and Segregation of the Coiled-Coil Segments of Yeast Putative Cargo Receptors Emp46p and Emp47p” (PLoS ONE, 2015)

Key:
[1] = target: E303A mutant of Emp46p^CC (yeast) (UniProt Q12396); experiment: cross-linking; dimethyl suberimidate (DMS) 0.1 mg/mL, 60 or 120 min, room temperature, 100 mM carbonate/bicarbonate buffer pH 8.9; SDS-PAGE
[2] = target: coiled-coil segment of Emp47p, Emp47p^CC (254–374) (yeast) (UniProt P43555); experiment: native MS; nanoflow electrospray under non-denaturing conditions, 200 mM ammonium acetate pH 7.4; single proteins 43 uM; mixtures of Emp47p^CC 33 uM with 17, 33 and 67 uM Emp46p^CC, 25 °C, 30 min
[3] = target: the molecule itself; experiment: native MS; mass spectra under non-denaturing conditions measured at pH 5.0; Emp47p^CC fixed, Emp46p^CC varied
[4] = target: the molecule itself; experiment: SEC; Superose 12 gel filtration; Emp47p^CC 70 uM alone or with Emp46p^CC or its E303A mutant; 10 mM phosphate buffer pH 7.4, 150 mM NaCl

| stoichiometry N [1] | stoichiometry N (Emp46p^CC per Emp47p^CC (printed as 1:3)) [2] | Molecule | stoichiometry N [3] | stoichiometry N [4] |
| --- | --- | --- | --- | --- |
| 2 | 0.33 | E303A mutant of Emp46p^CC (from UniProt Q12396 252-355) (domain or fragment) |  |  |
|  |  | coiled-coil segment of Emp47p, Emp47p^CC (254–374) (domain or fragment, yeast, UniProt P43555 282-402, looked up, Emp47p, yeast putative cargo receptor, coiled-coil segment, residues 254-374 by the methods (the results print 271–274); in mixtures with Emp46p^CC it forms 1:3 and 2:2 heterotetramers; the results print (271–274); also called Emp47^CC; source: E. coli BL21-CodonPlus, purified (Chelating Sepharose, tag cleaved, gel filtration)) GKEKLIEKTAFDADKDKITNYELYKKLDRVEGKILANDINALETKLNDVIKVQQELLSFMTTITKQLSSKPPANNEKGTSTDDAIAEDKENFKDFLSINQKLEKVLVEQEKYREATKRHGQ | 3 | 4 |
|  |  | coiled-coil segment of Emp46p, Emp46p^CC (252–355) (domain or fragment, yeast, UniProt Q12396 298-401, looked up, Emp46p, yeast putative cargo receptor, coiled-coil segment, residues 252-355; Monomer-dimer equilibrium by SV-AUC and native MS; also called wild-type Emp46p^CC; source: E. coli BL21-CodonPlus, purified (Chelating Sepharose, tag cleaved, gel filtration)) EESFREKMPFSDKEESITSNELFEKMNKLEGKIMANDIDPLLRKMNKIVENERELIQRLRPLLDLKKTAISDDSFQDFLSMNANLDRLIKEQEKIRQDAKLYGK | 2 |  |
